{"source": "the supplement of paper PMC9170038", "data": [{"test_system": "K4 kissing-loop RNA reporter", "assay": "apparent KD of K4 kissing-loop reporter; higher = weaker reporter binding", "conditions": "Eterna round: R107; input ligand: theophylline 20 uM", "method": "(§1)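 RNA-MaP round R107: designed RNA switches with theophylline, tryptophan, arginine or FMN aptamers are transcribed on-chip within common flanks. They are titrated with a labelled K4 kissing-loop RNA reporter in RNA-MaP buffer (100 mM Tris pH 7.5, 80 mM KCl, 4 mM MgCl2), without ligand or with the indicated ligand. Median apparent KD per design.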", "units": {"apparent KD of K4 kissing-loop reporter": "nM"}, "values": [{"sequence": "AUUUAAUUAACUGAUACCAGACUUUUUGUUUUGUUUAUUACUAGUGAUGUUAGUGUUUCUGUCCCUUGGCAGCAGAAUCUACUUA [JR_ExcTheophyB_Sub019]", "apparent KD of K4 kissing-loop reporter": 364}, {"sequence": "GGGAAGGAGUGAUGUUUCUUCUGAAUUUCUAAGGAUAUACGAUGCGGUAGAAGGUAGAUGCCUUGCAGGAAAUGUUCACCACGCG [theeternabot_exclusion_KL_FMN_A_2]", "apparent KD of K4 kissing-loop reporter": 184}, {"sequence": "ACCUACGAUCACAAUAGUGAUUGUAGGAACUAGGAUAUGCUGAAAAGCAGAAGGAGUGAUGUUCCAACUCAUGAAUAACAUGAGA [FmnAX 2 #OpenEnded #K4Late]", "apparent KD of K4 kissing-loop reporter": 274}, {"sequence": "AAAAUAAUCCAGUGAUGUUGGUCUCCAGAUACCAGCGACGAAAGUCGCCCUUGGCAGCUGUGGACGUACAAAAUAAGUACGUCCU", "apparent KD of K4 kissing-loop reporter": 345}, {"sequence": "AGGGUAAGGCGUUAACAUGACACCUGGGAAGGAGCGCGGUACACCGCAGGUAGGUCGCCCAGUGAUGUUGGGCGUAAGUAUGAGU [KL-XArg-A22]", "apparent KD of K4 kissing-loop reporter": 180}, {"sequence": "AUUCAGAUCUGAAGGAGCGCCUUGACAAAUUACUGCUUUGAGCAGUGAUGUUGCUCAAUUAGGCAGGUAGGUCGCAGAUCUAACC [Arg B Ex t7]", "apparent KD of K4 kissing-loop reporter": 383}, {"sequence": "AAAAUAAAGCAGUGAUGUUGCAUAUGAGAAGGAGCGCACGAAAGUGCAGGUAGGUCGCUCAGCCAAGUGGACGAAAACGUCCACA [#OpenEnded 9 #K4Early]", "apparent KD of K4 kissing-loop reporter": 168}, {"sequence": "GCCGUAGAUUGAAGGAGCGGGAGAGGGAAAGUGAUGUUUUCUCUAUGACGGCGUCCUCGAUCCCAGGUAGGUCGCAAUCUACGGC", "apparent KD of K4 kissing-loop reporter": 80.3}, {"sequence": "AAAAUAAACCAGUGAUGUUGGUAACCAGAUACCAGCGACGAAAGUCGCCCUUGGCAGCUGUGGACGUACAAAAUAAGUACGUCCU", "apparent KD of K4 kissing-loop reporter": 223}, {"sequence": "GAAUAAUAACAUGAGUGAUGUUCAUGUAAACGAGGACCGGUACGGCCGCCACUCGAACCUCAUGUAAGCCGUACCAAUAACAAUA [KL-XTryp-A4 #analogue]", "apparent KD of K4 kissing-loop reporter": 116}, {"sequence": "AUUAAUAACUGAGGAUAUCGUUUUACUGUAGUGAUGUUACAGAAAGUUCAAAUUAUAAUUUCUAUUCGAGAAGGCAGAAUAAUUA [JR_SSFMNB_Sub026]", "apparent KD of K4 kissing-loop reporter": 62.8}, {"sequence": "UUUCGUCUCUGAGGAUAUCAGACGAGAGUGAUGUUCUCCCAAAGCCCAGUGAUGUUGGAUGCUAUCUGAGAAGGCAGUGGGCGAA [Same State FMN B GF 12]", "apparent KD of K4 kissing-loop reporter": 634}, {"sequence": "GGCGAAUAAAAUCGCCUAGAGAGAAAGGAUACCAGCACCCGGCGGUGCCCUUGGCAGCCUAGCCCAGUGAUGUUGGGUCCUCUAA [Biaveinbe]", "apparent KD of K4 kissing-loop reporter": 345}, {"sequence": "ACGUCUUGUAAACUCGUGGUUUCGAUCGAUACCAGUAGCGAGAGUUACCCUUGGCAGCGACAUGAGUGAUGUUCAUGUACGAAGA [KL-XTheoA3]", "apparent KD of K4 kissing-loop reporter": 89}]}, {"test_system": "K4 kissing-loop RNA reporter", "assay": "apparent KD of K4 kissing-loop reporter; higher = weaker reporter binding", "conditions": "Eterna round: R107; input ligand: tryptophan 2.4 mM", "method": "as §1", "units": {"apparent KD of K4 kissing-loop reporter": "nM"}, "values": [{"sequence": "UGUCAUUGGUCUGAUACCAGUACCCUUGGCAGCCAAGGAGUGAUGUUCCAAGGAUACCAGUACCCUUGGCAGCAGACCGAUGACU [TheoBS 25 #DoubleAptamer #SwitchBubble]", "apparent KD of K4 kissing-loop reporter": 964}, {"sequence": "GCCGUACGCAUGGAUACCAGCAGAACUGCCCUCCCAGUGAUGUUGGGAGGAUCUUUCCUUUGCCCUUGGCAGCCAUGCGUACGGC", "apparent KD of K4 kissing-loop reporter": 117}, {"sequence": "AAAAUAAACCAGUGAUGUUGGUAUCCGGAUACCAGCGAUAAUCAUCGCCCUUGGCAGCCGCGGACGUACAAAAUAAGUACGUCCU [MatMod 14 - Jieux - Same State - Theophylline A]", "apparent KD of K4 kissing-loop reporter": 182}, {"sequence": "CUCUAACUGAGAAGGAGCGCGAUAUAAACACUCGCACAGUGAUGUUGUGUGUCAAGGGUAUCGCAGGUAGGUCGCUCAGAUACCU [Arg B SS t15]", "apparent KD of K4 kissing-loop reporter": 248}, {"sequence": "ACUUUGGGCCCAGUGAUGUUGGGUCCAGAUACCAGACGUAAAUAAGUCCCUUGGCAGCUGCGUACUAACUAGCACAGGAGGGUCC [Edleaes]", "apparent KD of K4 kissing-loop reporter": 141}, {"sequence": "UGUCAUUGGUCUGAUACCAGUCCCUUGGCAGCCAAAUGGAGUGAUGUUCCAAGGAUACCAGACCCUUGGCAGCAGACCGAUGACU [TheoBS 26 #DoubleAptamer #SwitchBubble]", "apparent KD of K4 kissing-loop reporter": 499}, {"sequence": "GUGGCACGAAAGUGCCACGCAUCCUCUCCCUAGGAUAUCUGGAAACAGAGAAGGAGGUCAUGAGUGAUGUUCAUCCAGAGGAUGC", "apparent KD of K4 kissing-loop reporter": 491}, {"sequence": "GAGGUGGAGUGAUGUUCCACACUCGCUAGUAAGGAUAUGGCUGCUUCCAGAAGGUACCUAGAUUCAGUGUGCAUCAGUAACGUGC [theeternabot_exclusion_KL_FMN_A_4]", "apparent KD of K4 kissing-loop reporter": 96.3}, {"sequence": "GCGUAGAUUAGCAGUGAUGUUGCUACGGAAGGAGCGCGUGAAAACGCAGGUAGGUCGCCGACAAAAUUAAUUUUAAUGUCUGCGC [KL-SSArg-A6]", "apparent KD of K4 kissing-loop reporter": 365}]}]}
